Tests used:
[1] = tested on: M-Ig of patient (monoclonal IgG kappa) (human (patient)); assay: SPR; conditions: 2 mM Mg2+; aptamer immobilized; scrambled channel subtracted; SPR: PBS, 2 mM MgCl2 (SB), 6.25-200 nM IgG, 20 ul/min, 1:1 model; ELONA: SuperBlock or ChonBlock, 0.05% Tween 20, 2 mM MgCl2, washes PBS/2 mM MgCl2/0.05% Tween …
[2] = tested on: daratumumab (anti-CD38 therapeutic mAb, IgG kappa); assay: SPR; conditions: SPR: PBS, 2 mM MgCl2 (SB), 6.25-200 nM IgG, 20 ul/min, 1:1 model; ELONA: SuperBlock or ChonBlock, 0.05% Tween 20, 2 mM MgCl2, washes PBS/2 mM MgCl2/0.05% Tween …

Sequence: GGAGGCTCTCGGGACGACGAGTGTGTCAGGTGGATGGACGGTTGGGTTGGGTAGGCAAGGATCGCTGCTGACCAGTTGAG [aptC]
- Kd [1]: 1.85 nM

Sequence: GGAGGCTCTCGGGACGACGGCGCGGCGATTTGGGGTATGGGGAGGGGGTGGGTTGGGTCCATCGCTGCTGACCAGTTGAG [aptD]
- Kd [2]: 2.67 nM
